From patent US5851983A, “Elastase inhibitory polypeptide and process for production thereof by recombinant gene technology” (Teijin Limited, priority 1987, dated 1998)

Key:
Format in all cases: biochemical
[1] = target: T1, polymorphonuclear leucocyte elastase from human sputum (Homo sapiens, UniProt P08246); assay: Assay for elastase inhibitor activity (Example 24); details: enzyme 2 × 10^-8 M, substrate 3.0 × 10^-4 M
T1 construct: Polymorphonuclear leukocyte elastase from human sputum (EPC Co; Funakoshi Yakuhin); purchased EPC Co. (via Funakoshi Yakuhin); host or cells: human sputum
T1 sequence (P08246 30-267): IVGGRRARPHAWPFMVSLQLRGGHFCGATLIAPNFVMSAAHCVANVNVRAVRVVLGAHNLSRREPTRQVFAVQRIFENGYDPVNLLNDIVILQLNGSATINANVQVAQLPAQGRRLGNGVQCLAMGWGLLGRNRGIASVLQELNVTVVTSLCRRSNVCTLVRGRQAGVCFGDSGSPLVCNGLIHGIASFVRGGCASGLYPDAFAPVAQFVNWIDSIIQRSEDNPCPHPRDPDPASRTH
Protocol: The following assay method was used.
Buffer: 0.1M (2-hydroxyethyl)piperazine-N'-2-ethansulfonic acid (HEPES), 0.5M NaCl, pH 7.5.
Enzyme concentration: the following enzyme was dissolved in the above-mentioned buffer to a concentration 9 times that shown in Table 12.
A. Polymorphonuclear leucocyte elastase from human sputum (EPC Co., Funakoshi Yakuhin)
Substrate solution: for the enzymes A, B, C, D and E, the following substrate a, b, c, d or e, respectively, was dissolved in a solution of DMSO+the above-mentioned buffer (1:9) (note, final concentration of DMSO was 10% in the buffer) to a concentration of 9 times that shown in Table 12.
a. MeO-Suc-Ala-Ala-Pro-Val-pNA (Bachem) […]
To wells of an ELISA 96-well microtiter plate, were added 120 μl of the buffer and the 20 μl of a sample solution of (Arg^59 -Ala^107) SLPI obtained in Example 23, followed by 20 μl of the enzyme solution. The mixture was reacted at 37° C. for 10 minutes. Next, 20 μl of the substrate was added, and developed at 37° C. The developed color was measured by absorption at 405 nm.
As a control the same procedure was carried out using SLPI.

[2] = target: T2, Human plasma thrombin (Homo sapiens, UniProt P00734); assay: Assay for thrombin inhibitory activity (Example 25); details: final concentration up to ×10^-5 M; enzyme 3 × 10^-9 M
T2 construct: (5) Human plasma thrombin (Kabi, Daiichi Kagaku Yakuhin); purchased Kabi (via Daiichi Kagaku Yakuhin); host or cells: human plasma
Protocol: F. Human plasma thrombin (Sigma)
Buffer: Buffer solution for each enzyme is as follow. Thrombin and FXa: 50 mM Tris-HCl, 7.5 mM EDTA-2Na, 175 mM NaCl (pH 8.4) […]
(§1) Substrate solution: for the enzymes F, G, H and I, the following substrate f, g, h or i, respectively, was dissolved to a final concentration shown in Table 14.
f. H.D-Phe-Pip-Arg-pNA (Kabi Vitrum)
(§2) To wells of an ELISA 96-well microtiter plate, were added a solution of (Arg^59 -Ala^107) SLPI obtained in Example 23 and then the enzyme solution, and the mixture was incubated at 37° C. for 10 minutes. Next, the substrate solution was added to develop the color, whose absorption was then measured at 405 nm. As a control, SLPI was used.

[3] = target: T3, Human plasma plasmin (Homo sapiens, UniProt P00747); assay: Assay for plasmin inhibitory activity (Example 25); details: final concentration up to ×10^-5 M; enzyme 1.0 × 10^-7 M
T3 construct: (6) Human plasma plasmin (Kabi, Daiichi Kagaku Yakuhin); purchased Kabi (via Daiichi Kagaku Yakuhin); host or cells: human plasma
Protocol: G. Human plasma plasmin (sigma)
Plasmin: 50 mM Tris-HCl, 100 mM NaCl (pH 7.4) […]
as §1
g. H.D-Val-Leu-Lys-pNA (Kabi Vitrum)
as §2

T3 sequence (P00747 581-810 limits assumed): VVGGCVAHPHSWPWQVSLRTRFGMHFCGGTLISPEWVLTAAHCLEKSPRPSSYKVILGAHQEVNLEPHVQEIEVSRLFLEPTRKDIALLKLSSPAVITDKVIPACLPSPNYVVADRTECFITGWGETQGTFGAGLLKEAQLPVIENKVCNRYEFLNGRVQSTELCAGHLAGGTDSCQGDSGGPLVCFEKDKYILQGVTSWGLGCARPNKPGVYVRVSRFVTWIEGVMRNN
T3 sequence (P00747 97-580 partner limits assumed): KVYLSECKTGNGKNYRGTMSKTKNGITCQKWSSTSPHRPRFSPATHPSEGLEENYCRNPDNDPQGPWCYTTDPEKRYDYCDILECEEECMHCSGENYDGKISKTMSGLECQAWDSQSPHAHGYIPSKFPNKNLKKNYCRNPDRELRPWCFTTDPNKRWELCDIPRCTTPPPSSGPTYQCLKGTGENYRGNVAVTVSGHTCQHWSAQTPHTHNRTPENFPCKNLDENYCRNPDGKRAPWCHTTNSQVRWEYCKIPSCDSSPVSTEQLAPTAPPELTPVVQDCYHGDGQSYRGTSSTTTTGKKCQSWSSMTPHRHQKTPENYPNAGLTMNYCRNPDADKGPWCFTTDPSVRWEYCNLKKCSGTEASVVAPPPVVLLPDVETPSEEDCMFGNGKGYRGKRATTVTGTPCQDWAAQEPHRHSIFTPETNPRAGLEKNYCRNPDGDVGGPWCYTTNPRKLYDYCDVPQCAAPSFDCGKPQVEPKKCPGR

B1: SLPI: Human secretory leukoprotease inhibitor; recombinant SLPI of Reference Example 1 used as control (protein)
chain: SGKSFKAGVCPPKKSAQCLRYKKPECQSDWQCPGKKRCCPDTCGIKCLDPVDTPNPTRRKPGKCPVTYGQCLMLNPPNFCEMDGQCKRDLKCCMGMCGKSCVSPVKA
- IC50 [1]: 13 nM
- inhibitory activity to thrombin [2]: did not exhibit inhibitory activity
- inhibitory activity to plasmin [3]: did not exhibit inhibitory activity
